Holding throughout (test): purified protein
What all share (assay type): biochemical, Glycine max
Common to all, as to conditions: 50 mM Na2HPO4-citric acid buffer, optimal pH 5.5 and temperature 42 °C, apparent Km, substrate 1.25-80 µM

Substrate in data set [1]: CC1(C)C[C@H]2C3=CC[C@@H]4[C@@]5(C)CC[C@H](O[C@@H]6O[C@H](C(=O)O)[C@@H](O)[C@H](O)[C@H]6O[C@@H]6O[C@H](CO)[C@H](O)[C@H](O)[C@H]6O)[C@](C)(CO)[C@@H]5CC[C@@]4(C)[C@]3(C)CC[C@@]2(C)[C@H](O[C@@H]2OC[C@H](O)[C@H](O)[C@H]2O)[C@@H]1O
Substrate in data set [2]: CC1(C)C[C@H]2C3=CC[C@@H]4[C@@]5(C)CC[C@H](O[C@@H]6O[C@H](C(=O)O)[C@@H](O)[C@H](O)[C@H]6O[C@@H]6O[C@H](CO)[C@H](O)[C@H](O)[C@H]6O[C@@H]6O[C@H](CO)[C@@H](O)[C@H](O)[C@H]6O)[C@](C)(CO)[C@@H]5CC[C@@]4(C)[C@]3(C)CC[C@@]2(C)[C@H](O[C@@H]2OC[C@H](O)[C@H](O)[C@H]2O)[C@@H]1O
Substrate in data set [3]: C[C@@H]1O[C@@H](O[C@H]2[C@H](O[C@H]3[C@H](O[C@H]4CC[C@@]5(C)[C@@H](CC[C@]6(C)[C@@H]5CC=C5[C@@H]7CC(C)(C)[C@@H](O)[C@@H](O[C@@H]8OC[C@H](O)[C@H](O)[C@H]8O)[C@]7(C)CC[C@]56C)[C@@]4(C)CO)O[C@H](C(=O)O)[C@@H](O)[C@@H]3O)O[C@H](CO)[C@H](O)[C@@H]2O)[C@H](O)[C@H](O)[C@H]1O

B1: GmSSBG1 (SSBG1Δ24; GmBGLU13) (Glycine max) (protein)
chain: LDLSFLPSDFLFGIASSSYQYEGAYKSDGKGLSNWDNYTHGPGRSVIMDGSNGDIAIDHYHRYLEDIDLMETLGVNSYRLSLSWARILPKGRFGEPNHAGIEFYNRLIDVLLLKGIQPFVTLSHYDIPQELEDRYGSWLSPQLQEDFAFYADLCFKTFGDRVKYWVTFNEPNFLVSLGYRSGLYPPCRCSGQLAMAKCSEGDSEKEPFVAAHNVILSHAAAVDIYRTKYQTEQKGSIGIVLQHEWFEPMSNSTADKLASERARAFNFNWFLDPIIFGKYPTEMENVLGSLLPKFSSYEKEKLKRGLDFIGVNYYTAFYVQDCMYSACKPGPGISRTEGSYKKSGEKNGVPIGEPTPFSWFNIYPDGMEKTVTYVRDRYNNTPIFLTENGYAEEVDPNFTSEEHLNDFKRIKYMVDHIEALLAAIRKGADVRGYFAWTLIDSFEWIYGYTVRYGFHHVDYATLKRTPRLSASWYKQLLVQYKKTFLLGTSMTGHEKLVQHT
notes: N-terminal 24-residue signal peptide removed (SSBG1Δ24); MBP fusion from pMAL-c2x, E. coli BL21(DE3), amylose resin; tag removal not mentioned
B1: the Km (in general, the substrate concentration at which the rate is half of its maximum) in “purified protein [1]” came to 28.88 µM; in “purified protein [2]”, 46.51 µM; in “purified protein [3]” it was 165.90 µM. Further, the results for the kcat in “purified protein [1]”, in “purified protein [2]” and in the data set “purified protein [3]” were 0.0018 s⁻¹, 0.0040 s⁻¹ and 0.0072 s⁻¹, respectively.

The values are drawn from publication PMC12238454, “Soyasaponin β-glucosidase confers soybean resistance to pod borer (Leguminivora glycinivorella)” (aBIOTECH, 2025).
